Test results from article PMC10801496, “A Novel Anti-CD47 Nanobody Tetramer for Cancer Therapy” (Antibodies, 2024).

The binders below were run against T1, human CD47 with His tag (Homo sapiens, UniProt Q08722) (assay: SPR; recombinant CD47 anchored to a CM5 chip, nanobodies as analyte, Biacore T200). Settings: both partners purified.
T1 construct: CD47, human; The alpaca was immunised with an extracellular fragment of CD47; also called recombinant CD47; source: gift from P.M. Chumakov
T1 sequence (Q08722 19-323): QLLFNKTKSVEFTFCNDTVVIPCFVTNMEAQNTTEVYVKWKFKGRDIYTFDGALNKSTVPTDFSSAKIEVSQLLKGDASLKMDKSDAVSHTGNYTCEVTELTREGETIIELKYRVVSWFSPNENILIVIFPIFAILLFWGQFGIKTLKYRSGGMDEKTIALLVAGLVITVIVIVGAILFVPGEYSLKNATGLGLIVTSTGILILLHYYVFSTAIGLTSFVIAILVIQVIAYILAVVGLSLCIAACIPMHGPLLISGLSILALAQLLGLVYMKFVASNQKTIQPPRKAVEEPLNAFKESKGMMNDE

Row | Kd [nM] | Binder
1 | 2000 | 47VHH1C17 (VHH, alpaca VHH; Cloned into pET32b+; about 17 kDa on SDS-PAGE; source: E. coli BL21DE3, purified (Ni-NTA, gel-filtration)) VHH: QVQLVESGGGLVQAGGSLRLSCAASGHTFSSYDMGWFRQAPGKEREFVAHINWSGSTYYADSVKGRFTISGGNAKNAVYLQMNSLKPEDTAVYYCGAKYAISRTWDYWGQGTQVTVSS
2 | 30 | 47VHH1H4 (VHH, alpaca VHH; Cloned into pET32b+; about 17 kDa on SDS-PAGE; also called native 47VHH1H4; source: E. coli BL21DE3, purified (Ni-NTA, gel-filtration)) VHH: QVQLVESGGGLVQAGGSLRLSCKVSGNNFRRVNMGWYRQAPGKQRDLVAWISNDGGTYYDRSLKGRFTISRDNTKNTMFLQMDSLKPEDTAVYYCNSRPSSIFGSWGQGTQVTVSS
3 | 3 | 47VHH1H4B (VHH, as the VHH of m3 (47VHH1H4); IgA hinge linker; biotin acceptor domain BAD; About 25 kDa on SDS-PAGE; also called biotinylated 47VHH1H4; biotinylated 47VHH1H4 fragment; source: E. coli BL21DE3 carrying BirA, 0.3 mM biotin, purified (Ni-NTA, UNO S1 cation exchange)) VHH: QVQLVESGGGLVQAGGSLRLSCKVSGNNFRRVNMGWYRQAPGKQRDLVAWISNDGGTYYDRSLKGRFTISRDNTKNTMFLQMDSLKPEDTAVYYCNSRPSSIFGSWGQGTQVTVSS
4 | ~30000 | 47VHH1A12 (VHH, alpaca VHH; Cloned into pET32b+; about 17 kDa on SDS-PAGE; source: E. coli BL21DE3, purified (Ni-NTA, gel-filtration)) VHH: QLQLVESGGGLVQAGGSLRLSCVVSGGTFSALTMGWFRDVPGKEREFVSAISFDTRTTYYSDSVKGRFAISRDNGLNTVYLDMNSLRPEDTAVYVCAADAQIGWVNRRAYDYDYWGQGTQVTVSS
5 | ~30000 | 47VHH2B10 (VHH, alpaca VHH; Cloned into pET32b+; about 17 kDa on SDS-PAGE; source: E. coli BL21DE3, purified (Ni-NTA, gel-filtration)) VHH: QVQLVESGGGLVQPGGSLRLSCEASGFNLGYYGICWFRRAAGKEREGVACSATPDDSTYYADSVKGRFTISKDKAKNMIFLQMNDLKPEDTAVYYCVTDRKPKYGKQWLEFSEYDYWGQGTQVIVSS
6 | 400 | 47VHH1D9 (VHH, alpaca VHH; Cloned into pET32b+; about 17 kDa on SDS-PAGE; source: E. coli BL21DE3, purified (Ni-NTA, gel-filtration)) VHH: RVQAGGSLRLSCKVSGNNFRRVNMGWYRQAPGKQRDLVAWISNDGGTYYDRSLKGRFTISRDNTKNTMFLQMDSLKPEDTAVYYCNSRPSSIFGSWGQGTQVTVSS
